# Data from the supplement of paper PMC12042874.
# ± gives the uncertainty stated by the source.
# Assay: amyloid nucleation score (Sup35N fusion, yeast selection) (log enrichment); library NNK1; higher = more nucleation; inactive = no reads after selection
# Procedure, shortened: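 Plasmid inserts were Illumina-sequenced at input and output from psi-negative yeast expressing Sup35N fused to peptides of 20 random codons. The yeast were induced with 100 μM copper sulfate for 24 hours and grown 7 days at 30°C on medium lacking adenine and uracil, and sequences with under 100 input reads were excluded. Nucleation score is the DiMSum log enrichment of output over input reads, centred on the mode score of non-aggregating sequences.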
row,Substance,amyloid nucleation score
1,VIGKMDEVGSIVEFDSGIRV,0.658 ± 0.47
2,VIIRIIKFTCNSSLIIITKW,0.694 ± 0.49
3,VIIRRWHIVFCSRFMFPCNF,0.297 ± 0.64
4,VIPKGPSKTLNNFWYYAYHS,-0.327 ± 0.79
5,VIPVFRGSSFA,-0.055 ± 0.66
6,VISIGIGMDTTTRVGQMYMK,-0.115 ± 1.4
7,VISPNSLTCCAH,-0.146 ± 0.93
8,VITWEWFRFRRRFGKMEGCL,1.24 ± 0.28
9,VKFCCFGLLCELYSGHSGRM,1.33 ± 0.15
10,VKFMMRLDYYCPLSTVQTTA,-0.644 ± 0.36
11,VKLLYVIISYVRVCCRMDQI,-0.501 ± 0.54
12,VKPLKHPSGYYAMRRFVYNI,-0.566 ± 1.2
13,VKSGS,0.21 ± 0.24
14,VKTHSVFSMMVV,0.558 ± 0.51
15,VLCLHWWLRTILGPLLAYAN,inactive
16,VLCPW,-0.283 ± 0.44
17,VLDGVNNNILLCLISRWGVL,4.46 ± 0.079
18,VLDMKFKYNVPSLK,5.41 ± 0.06
19,VLFESIRWMSG,-0.142 ± 1.1
20,VLGTLSMFYFRAYFRPAWLS,-0.278 ± 0.5
21,VLISENNITNHNSHECLVCY,-1.02 ± 1.7
22,VLIWPGRRNSARSYWSSSGL,1.21 ± 0.66
23,VLKDFYNDDKRFQRRL,0.421 ± 0.3
24,VLKTWVIDNKSVGEMCNLNG,0.556 ± 0.85
25,VLLIPMTKAKMKMSIW,0.584 ± 0.34

row,Substance,amyloid nucleation score
1,VLLTMWFNFFLLRNRGVVFS,2.65 ± 0.08
2,VLLVGDPDLPRKRRLRRIAE,1.23 ± 0.62
3,VLMMV,1.28 ± 0.48
4,VLQQGTSLTKYV,0.509 ± 0.42
5,VLRWYEDNPFC,0.291 ± 0.32
6,VLSDSDINMRLEKEFYVIIS,inactive
7,VLSSDGGGFVYFRYSGYTCR,0.253 ± 0.67
8,VLSSGESIRNTAINVEVEHQ,0.449 ± 0.38
9,VLSVGQESTMISESGFNTEN,-0.001 ± 0.55
10,VLSVSCVRYISGVRERWYVL,1.23 ± 0.6
11,VLVFCVTMVRNYSWCIGWRI,0.035 ± 0.44
12,VLVGCLASQRVISENKGCKC,0.722 ± 0.81
13,VLWHGLVVRSGNVEIVRSMC,-0.175 ± 0.96
14,VLWSCDAMWWVRIKSTYVWN,0.495 ± 1.2
15,VLWTLVKIPHFTPNIMFRYY,0.053 ± 1.1
16,VLYTTLHGFYHNCWLWLRYS,-0.191 ± 0.42
17,VMCAGQESESIRGGYSEVNG,1.17 ± 0.39
18,VMGVLYSRADSVVEIGLLRV,-0.972 ± 1
19,VMILNLIVDTRLRVSRHLHV,2.88 ± 0.28
20,VMLTPRDLGLVPIGLDHVRG,-0.236 ± 0.38
21,VMPSSELYF,0.349 ± 0.39
22,VMRPFWMMMFYFYVEPEALS,-0.584 ± 0.95
23,VMTWTLCRTRG,-0.275 ± 0.4
24,VMVWHCRSATTWWKQVTMNL,-0.584 ± 2.1
25,VNCISHGACMCRWFYDSGKK,0.847 ± 0.38

row,Substance,amyloid nucleation score
1,VNCSRYRGESASDNWSGALL,-0.186 ± 0.85
2,VNDWALVLSNLDSNVLSSRT,0.566 ± 0.24
3,VNFILNF,5.41 ± 0.066
4,VNFYDLVL,0.318 ± 0.46
5,VNHCMMHEYLGGLLSSVIG,0.773 ± 0.24
6,VNLGKNFTQLLIGRCVSKVR,0.417 ± 0.33
7,VNNIVRSICGIKGEVRFLCG,0.094 ± 1.2
8,VNQFLRAMVPLKLRYRYFCL,1.02 ± 0.74
9,VNSTEGP,-0.989 ± 2.7
10,VPCMWRFTHVSKYEGKSRTL,-0.452 ± 0.42
11,VPIMYNFGINDVGSVCDCTD,7.259 ± 0.053
12,VPPCEWHRRTYR,0.176 ± 1.1
13,VPTYGFGLEIFKDFSMNR,-0.926 ± 0.44
14,VPVVDNIVSIL,-0.718 ± 1.7
15,VPVYNMNFYAVLHILSFCLD,4.18 ± 0.057
16,VPWSFLQRSWLDIWECPYKL,-0.276 ± 0.41
17,VQAKYNSSLGESNRDSDCAS,0.187 ± 0.34
18,VQDLYCIRYL,-1.39 ± 2.4
19,VQEYGASCKSMTGLGTLKCK,0.876 ± 0.81
20,VRDMHSHTLGYCRDGMYYFK,-0.403 ± 0.84
21,VRGSVLCHRSLHETKNFL,0.279 ± 0.38
22,VRGSVRCNVDYLICVYVHR,1.46 ± 0.51
23,VRHCTQINSPFYYDFN,-0.318 ± 0.3
24,VRKYRRWSRMIWGCYNNFVF,-1.44 ± 0.53
25,VRLNNCNLFFCYMTRIAFAE,4.96 ± 0.067

row,Substance,amyloid nucleation score
1,VRMKPCSLLNLGTYPAQNVM,-0.888 ± 1.9
2,VRNHVYGLCVSWTAGDKCNR,5.03 ± 0.087
3,VRNVG,-0.14 ± 0.59
4,VRNVISNKYCRAGYLTKYLL,-0.16 ± 0.22
5,VRRSEHSRLSYEWGECLRLT,-0.174 ± 0.38
6,VRSFNRGFKMHTYIPTHFLW,-0.55 ± 0.26
7,VRSKLPPGSFDSFWGWWEKK,-0.343 ± 0.45
8,VRSLAFTNVYFEEGAYVANT,-0.532 ± 0.73
9,VRSPFSIHRRFLTLGIQEFS,1.4 ± 0.74
10,VRVEKNCNFWLFSIVSCLPH,8.49 ± 0.065
11,VRVFTHSSVGREE,-0.177 ± 0.25
12,VRYEIAA,-1.06 ± 2.4
13,VSAND,-0.547 ± 0.4
14,VSCRR,inactive
15,VSDHT,1.02 ± 0.47
16,VSEHSFWIWGRVPQLTQIIA,inactive
17,VSESDKEGLEK,-1.17 ± 1.6
18,VSFIYFRVWILAMDY,0.842 ± 0.37
19,VSFRFLMGFVYVKCWSSSLD,1.38 ± 0.69
20,VSLCVSFFFYRSAVITVYAH,0.282 ± 0.58
21,VSLVAGTWFYFWHNALVTYH,-0.067 ± 0.36
22,VSNERSWMRCFFMGSRIAHG,-0.735 ± 0.4
23,VSNNYRDV,0.807 ± 0.72
24,VSNTWYLTVNLFLYIIPCN,6.755 ± 0.058
25,VSQTPWTLYLN,0.229 ± 0.26

row,Substance,amyloid nucleation score
1,VSRFFGNRRTNSNENTAGVA,-1.15 ± 0.43
2,VSRVNYNVFSVGISKSVCD,0.201 ± 0.85
3,VSSFLLRSFRKCRPLCYIVR,3.89 ± 0.085
4,VSSFWRELVPYGMVCRESSL,0.178 ± 0.56
5,VSSYAIYEECNLPGKAGKPC,-0.213 ± 0.63
6,VSTGWKRLKFQLVIGCFS,0.502 ± 0.53
7,VSTLA,inactive
8,VSVGR,-0.153 ± 1.4
9,VSVKSNGWMSWWLSWQVPKH,-0.147 ± 0.63
10,VSWDSMYMAMPWVIVHVL,inactive
11,VTDFVALFVIGTGPVVGLRW,1.27 ± 0.43
12,VTKVTLMLFLSCWLF,-0.677 ± 0.47
13,VTMDCLMLPYRKGNPN,0.996 ± 0.64
14,VTQIKPVRRLGGL,-0.692 ± 0.87
15,VTQSYDFKSLQIISIQN,1.39 ± 0.12
16,VTRYTLVYFPLSLIRSTPAN,0.62 ± 0.36
17,VTRYVPECGWKDLDLASWYL,1.34 ± 0.58
18,VTSSWNSDAFTWFYNDSWCL,inactive
19,VTWGSSPMQKFSMVQIKS,0.564 ± 0.48
20,VTYKEQNGLLLFAPDSVQRD,inactive
21,VTYTEYCSVLLKTH,-1.81 ± 2.4
22,VVAAILHKLS,-0.16 ± 0.41
23,VVASSCSFNRRLESSAGYL,0.744 ± 0.37
24,VVAVE,-0.27 ± 0.38
25,VVCFMPVLMAVQMGCSHWNY,3.55 ± 0.063

row,Substance,amyloid nucleation score
1,VVHLSLCMRCALWRYRELVC,1.12 ± 0.55
2,VVILYIDRFGVLFHHLG,0.821 ± 1.1
3,VVKVWPYYSYVSMV,-0.114 ± 0.55
4,VVLQVMFARAWWFF,0.185 ± 0.33
5,VVLRLRSSYFGGLAGMA,0.121 ± 0.33
6,VVNITYFPMVSVRLICGNVP,6.569 ± 0.063
7,VVQGCIYYCHNVWYLDVFSF,4.62 ± 0.089
8,VVSDNSMDV,0.39 ± 0.47
9,VVSVMLAFYTKDSFVVWLNL,1.02 ± 0.15
10,VVTQLLEFVSITSEGWSQHM,2.57 ± 0.096
11,VVVFSTF,-0.376 ± 1.4
12,VVVFVSE,0.997 ± 0.65
13,VVVIFLHGIWCGLRL,-0.208 ± 0.75
14,VVVRLRFRNSIPSILSQR,-0.304 ± 0.71
15,VWCVFFLVLYFYR,0.422 ± 0.57
16,VWEFD,-0.537 ± 0.42
17,VWFRCWSPEVENGHVCLSCS,-0.026 ± 0.41
18,VWFYRLIVSEVGFFRVKLKM,-1.58 ± 1.4
19,VWGDRWTTVSGRSAEYRTKS,1.34 ± 0.15
20,VWLGTEFFVSCLACMLVSVL,-1.05 ± 0.54
21,VWRSVSRCSCVSSSIGGVTV,-0.868 ± 0.39
22,VWSILCMCNRSHLWVKSSKR,0.988 ± 0.35
23,VWTSWDGRSLIAEWVCYLE,6.232 ± 0.048
24,VYFIRIHLLFRHRTGGICNT,1.06 ± 0.72
25,VYITVFMIAYMLLSDTDHE,0.377 ± 0.31

row,Substance,amyloid nucleation score
1,VYRTNLSINSTFIWTHELRS,0.525 ± 0.18
2,VYSRSWPGFLKWLLASIFF,0.694 ± 1.2
3,WASFGPLGAQVPDRRFIYMP,0.151 ± 0.81
4,WAVSGVDKVTRLGSEGVMQS,-0.809 ± 0.9
5,WCGVFESGNRPKSQGKGSKW,0.159 ± 0.55
6,WCSAMKISTRAPRWENIWSM,0.612 ± 0.62
7,WCSNVNFDVRVDNIKSFRWF,5.864 ± 0.053
8,WDETY,4.62 ± 0.07
9,WDRTTCVYSLLPMGNSPKVE,0.144 ± 0.45
10,WDTDVLRDNWSQLRFLVSGR,-0.216 ± 0.21
11,WDWSERLQAFWSVTLSSNSW,0.517 ± 0.71
12,WEYEAGNFDSVMMVLLLSCY,1.25 ± 0.61
13,WFAGAGLIMRNVRSGW,-0.126 ± 0.66
14,WFTDGT,inactive
15,WFTGGFRVIMGS,0.728 ± 0.97
16,WFWLIRMYMSFYVVAFVGSG,1.31 ± 0.74
17,WGRMV,0.248 ± 0.74
18,WHEWNSVEWVGRSWTTDFEW,inactive
19,WHSMKMCF,0.115 ± 0.45
20,WHSSSLMWHNKLS,inactive
21,WHWVAEWSMRTYSGLSIECY,inactive
